From patent US20220406376A1 (MacroGenics, published 2022) come the findings set out here.

In assay [1] the target is T1, CD137 on the surface of cells (activated human T cells; engineered CHO cells) (human, UniProt Q07011 24-255).
T1 construct: whole, on cells; also called human CD137; cell surface expressed CD137
Briefly: flow cytometry on activated pan T cells gated CD8+ (donor D43867), anti-hFc APC MFI. How it is done:
(§1) Three antibodies were selected for further study. For such evaluations, purified pan T-cells (see above) were stimulated with anti-CD3/CD28 beads (cells:beads=1:1) for 72 hours in the presence of IL-2 (100 U/mL). 100 μL of activated T cells (1.0×10⁶ cells/mL) and 100 μL of serially diluted (5- or 10-fold dilutions) test article (antibody or bispecific diabody) was added to each well of microtiter assay plate(s), mixed and incubated at RT for 45 min. The cells were washed with FACS Buffer and secondary antibody (anti-human-Fc region-APC) was then added to each well; mixed and incubated at RT for 30 min. Cells were then washed FACS Buffer and T cell surface marker antibodies (anti-CD4 labeled with V510, and anti-CD8 labeled with FITC) were then added to each well; mixed and incubated at RT for 30 min. Cells were washed and resuspended in 100 μL FACS Buffer and analyzed by flow cytometry (BD LSR Fortessa or FACSCanto 11) for cell event collection. Data analysis were performed via FloJo v10.

Assay [2] concerns the target T1, CD137 on the surface of cells …. Briefly: flow cytometry on activated pan T cells gated CD4+ (donor D43867), anti-hFc APC MFI. The method, then: as §1
Assay [3] has as its target T2, extracellular portion of human CD137 fused to a histidine-containing peptide (human, UniProt Q07011 24-186).
T2 construct: extracellular domain; also called huCD137; His-tagged soluble human CD137
The assay can be described thus: SPR (BIACORE); antibody captured on anti-human Fc; huCD137 25 and 100 nM; 1:1 Langmuir. The method, then:
(§2) Thus, an extracellular portion of human CD137 fused to a histidine-containing peptide (“huCD137”) was passed over a surface coated with immobilized antibody. Briefly, each test molecule was captured onto an F(ab)₂ goat-anti-human Fc-coated surface and then incubated in the presence of different concentrations (25 nM and 100 nM) of huCD137. The kinetics of binding were determined via BIACORE® analysis binding (normalized 1:1 Langmuir binding model).

For assay [4], the target named is T2, extracellular portion of human CD137 …. Briefly: SPR (BIACORE), against chCD137 MAB-3. The method, then:
as §2

The target of assay [5] is T1, CD137 on the surface of cells …. Briefly: flow cytometry on activated pan T cells gated CD8, anti-hFc APC MFI.
Assay [6] deals with T3, HER2/neu on the surface of target cells (N87, JIMT-1, MCF-7, MDA-MB231) (UniProt P04626 23-1255, limits assumed).
T3 construct: whole, on cells
Briefly: flow cytometry on N87 gastric cancer cells, anti-hFc APC MFI.

For assay [7], the target named is T3, HER2/neu on the surface of target cells …. The assay can be described thus: flow cytometry on N87 cells, anti-hFc APC MFI. The gist of the method: (§3)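 N87 or JIMT-1 cells were incubated 45 min at RT with serially diluted (5- or 10-fold) bispecific diabodies. Bound molecules were detected with APC-labelled anti-human Fc (30 min, RT), and APC MFI was read by flow cytometry.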

In assay [8] the target is T1, CD137 on the surface of cells …. Briefly: flow cytometry on CD137-expressing CHO cells (CHO/137), anti-hFc APC MFI.
Assay [9] deals with T4, extracellular portion of human HER2 fused to a histidine-containing peptide (human, UniProt P04626 23-652).
T4 construct: extracellular domain; also called huHER2; Human HER2/neu
The assay can be described thus: SPR (BIACORE), essentially as for Table 8. The text has this: The humanized variants were selected to have improved binding affinity as compared to the parental murine antibody and as described may be further engineered to eliminate sequence liabilities (e.g., isomerization, deamidation sites) as described above. The binding affinity of several combinations of humanized VH and VL domains was examined by BIACORE®. Thus, an extracellular portion of human HER2 fused to a histidine-containing peptide (“huHER2”) was passed over a surface coated with immobilized antibody. Briefly, each test molecule was captured onto an F(ab)₂ goat-anti-human Fc-coated surface and then incubated in the presence of different concentrations (6.25 nM-50 nM) of huHER2. The kinetics of binding were determined via BIACORE® analysis binding (normalized 1:1 Langmuir binding model).
In a separate study, the binding kinetics of the CD137×TA bispecific diabody, DART-B (described above), were determined for binding to human HER2 and cynomolgus monkey HER2, essentially as described above.

Assay [10] concerns the target T1, CD137 on the surface of cells …. Briefly: flow cytometry on activated CD8+ T cells (CD8 FITC), anti-hFc APC MFI.
For assay [11], the target named is T3, HER2/neu on the surface of target cells …. The assay can be described thus: flow cytometry on JIMT-1 cells, anti-hFc APC MFI. The gist of the method:
as §3

The target in assay [12] is T5, 5T4 on the surface of target cells (JIMT-1, SKOV-3) (UniProt Q13641 32-420, limits assumed).
T5 construct: whole, on cells
T5 sequence (looked up): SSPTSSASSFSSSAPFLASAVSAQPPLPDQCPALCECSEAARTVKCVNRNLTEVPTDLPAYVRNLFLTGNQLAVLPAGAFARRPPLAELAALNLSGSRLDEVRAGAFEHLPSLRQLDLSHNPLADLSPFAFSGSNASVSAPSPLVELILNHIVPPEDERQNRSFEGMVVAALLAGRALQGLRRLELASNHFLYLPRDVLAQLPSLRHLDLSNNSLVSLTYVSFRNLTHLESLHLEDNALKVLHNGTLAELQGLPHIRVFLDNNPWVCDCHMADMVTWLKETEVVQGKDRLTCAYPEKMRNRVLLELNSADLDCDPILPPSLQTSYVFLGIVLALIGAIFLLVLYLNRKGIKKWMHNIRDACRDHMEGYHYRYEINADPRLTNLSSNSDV
Briefly: flow cytometry on JIMT-1 (5T4 hi) cells, anti-hFc APC MFI.

The target of assay [13] is T1, CD137 on the surface of cells …. The assay can be described thus: flow cytometry on activated CD8+ T cells (donor D59788, CD8 FITC), anti-hFc APC MFI.
Assay [14] deals with T5, 5T4 on the surface of target cells …. Briefly: flow cytometry on SKOV-3 (5T4 lo) cells, anti-hFc APC MFI.

Residue numbers refer to the chain shown, from its start.

T1 sequence (Q07011 24-255, change not shown): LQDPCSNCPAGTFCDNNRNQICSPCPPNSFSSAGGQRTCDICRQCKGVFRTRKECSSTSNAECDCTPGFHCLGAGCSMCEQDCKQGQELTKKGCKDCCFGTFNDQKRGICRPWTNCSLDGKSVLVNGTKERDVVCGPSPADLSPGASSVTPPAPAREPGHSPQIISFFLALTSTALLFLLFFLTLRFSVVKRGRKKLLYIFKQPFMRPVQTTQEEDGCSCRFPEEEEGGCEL

B1: hCD137 MAB-3 (1E.15) (antibody, V domains shown)
VH: QVQLVQSGAEVKKPGASVKVSCKASGYTFTSYWINWVRQAPGQGLEWIGNIYPSDSYTNYNQKFKDKATITADKSTSTAYMELSSLRSEDTAVYYCTRDYGSAYSMSTWGQGTTVTVSS
VL: DIQMTQSPSSLSASVGDRVTITCQASQDISNYLNWYQQKPDKTVKLLIYYTGRARSGVPSRFSGSGSGTDFTFTISSLQPEDIATYFCQQGDTLPYTFGQGTKLEIK
Regarding B1, the concentration for a half-maximal effect (EC50 (read off the curve)) in [1] is around 0.005 µg/mL; in assay [2], around 0.006 µg/mL.

B2: hCD137 MAB-3 (1G.15) (antibody, V domains shown)
VH: B1 VH with I48A
VL: B1 VL
As for B2, the “EC50 (read off the curve)” value in assay [1] is around 0.008 µg/mL; in assay [2], around 0.01 µg/mL.

B3: hCD137 MAB-3 (1.3) (antibody, V domains shown)
VH: B1 VH with R38K, A103S, M106F, S107D, T108Y
VL: B1 VL with Q24R, A25P, G52S, A54L
notes: also called chCD137 MAB-3 (1.3)
In assay [3], B3 showed a Kd of 50 nM, a koff of 0.033 s⁻¹ and a kon of 660000 M⁻¹ s⁻¹. For the same molecule, the “fold decrease in binding affinity relative to the murine antibodies” value in [4] is around 2 fold.

B4: hCD137 MAB-3 (1.1) (antibody, V domains shown)
VH: B1 VH with R38K, A103S, M106F, S107D, T108Y
VL: B1 VL with Q24R, A25P, K42G, G52S, A54L
notes: also called chCD137 MAB-3 (1.1)
Regarding B4, in assay [3], the affinity, expressed as Kd, was 46 nM; the koff was found to be 0.031 s⁻¹; the kon worked out at 670000 M⁻¹ s⁻¹. The “fold decrease in binding affinity relative to the murine antibodies” value in assay [4] was around 2 fold.

B5: hCD137 MAB-3 (1.2) (antibody, V domains shown)
VH: B1 VH with R38K, A103S, M106F, S107D, T108Y
VL: B1 VL with Q24R, A25P, D41G, K42G, G52S, A54L
notes: also called chCD137 MAB-3 (1.2)
In the case of B5, in assay [3], the Kd amounted to 49 nM, the koff stood at 0.03 s⁻¹ and the kon was 610000 M⁻¹ s⁻¹. In [4], the “fold decrease in binding affinity relative to the murine antibodies” value was around 2 fold.

B6: DART-B (bispecific antibody)
chain 1: not shown
chain 2: DIQMTQSPSSLSASVGDRVTITCRPSQDISNYLNWYQQKPDKTVKLLIYYTSRLRSGVPSRFSGSGSGTDFTFTISSLQPEDIATYFCQQGDTLPYTFGQGTKLEIKGGGSGGGGQVQLVQSGAEVKKPGASVKVSCKASGYTFTNYGMNWVRQAPGQGLEWMGWINTNIGEPTYTEEFKGRVTMTRDTSISTAYMELSRLRSDDTAVYYCARDDGYGNRVSYWGQGTLVTVSSGGCGGGKVAACKEKVAALKEKVAALKEKVAALKE
Turning to B6, the “EC50 (read off the curve)” value in assay [5] was around 0.1 nM; in assay [6] it was around 0.5 nM; in assay [7], around 0.06 µg/mL; in [8], around 0.01 µg/mL; in assay [10] it was around 0.02 µg/mL; in assay [11], around 0.03 µg/mL. Further, the Kd in assay [9] worked out at 0.38 nM. Further, the off-rate (koff) in [9] was 0.000182 s⁻¹. Further, in assay [9], the kon is 480000 M⁻¹ s⁻¹.

B7: TRIDENT-B5 (bispecific antibody, human IgG1, kappa, L234A L235A)
chain 1: DIQMTQSPSSLSASVGDRVTITCQASQDISNYLNWYQQKPDKTVKLLIYYTGRARSGVPSRFSGSGSGTDFTFTISSLQPEDIATYFCQQGDTLPYTFGQGTKLEIKGGGSGGGGQVQLVQSGAEVKKPGASVKVSCKASGYTFTSYWINWVRQAPGQGLEWIGNIYPSDSYTNYNQKFKDKATITADKSTSTAYMELSSLRSEDTAVYYCTRDYGSAYSMSTWGQGTTVTVSSASTKGEVAACEKEVAALEKEVAALEKEVAALEKGGGDKTHTCPPCPAPEAAGGPSVFLFPPKPKDTLMISRTPEVTCVVVDVSHEDPEVKFNWYVDGVEVHNAKTKPREEQYNSTYRVVSVLTVLHQDWLNGKEYKCKVSNKALPAPIEKTISKAKGQPREPQVYTLPPSREEMTKNQVSLWCLVKGFYPSDIAVEWESNGQPENNYKTTPPVLDSDGSFFLYSKLTVDKSRWQQGNVFSCSVMHEALHNHYTQKSLSLSPGK
chain 2: DIQMTQSPSSLSASVGDRVTITCQASQDISNYLNWYQQKPDKTVKLLIYYTGRARSGVPSRFSGSGSGTDFTFTISSLQPEDIATYFCQQGDTLPYTFGQGTKLEIKGGGSGGGGQVQLVQSGAEVKKPGASVKVSCKASGYTFTSYWINWVRQAPGQGLEWIGNIYPSDSYTNYNQKFKDKATITADKSTSTAYMELSSLRSEDTAVYYCTRDYGSAYSMSTWGQGTTVTVSSASTKGKVAACKEKVAALKEKVAALKEKVAALKE
heavy: QVQLVQSGAEVKKPGASVKVSCKASGYTFTSFWMHWVRQAPGQGLEWMGRIDPNRGGTEYNEKAKSRVTMTADKSTSTAYMELSSLRSEDTAVYYCAGGNPYYPMDYWGQGTTVTVSSASTKGPSVFPLAPSSKSTSGGTAALGCLVKDYFPEPVTVSWNSGALTSGVHTFPAVLQSSGLYSLSSVVTVPSSSLGTQTYICNVNHKPSNTKVDKRVEPKSCDKTHTCPPCPAPEAAGGPSVFLFPPKPKDTLMISRTPEVTCVVVDVSHEDPEVKFNWYVDGVEVHNAKTKPREEQYNSTYRVVSVLTVLHQDWLNGKEYKCKVSNKALPAPIEKTISKAKGQPREPQVYTLPPSREEMTKNQVSLSCAVKGFYPSDIAVEWESNGQPENNYKTTPPVLDSDGSFFLVSKLTVDKSRWQQGNVFSCSVMHEALHNRYTQKSLSLSPGK
light: DIQMTQSPSSLSASVGDRVTITCRASQGISNYLAWFQQKPGKAPKSLIYRANRLQSGVPSRFSGSGSGTDFTLTISSLQPEDVATYYCLQYDDFPWTFGQGTKLEIKRTVAAPSVFIFPPSDEQLKSGTASVVCLLNNFYPREAKVQWKVDNALQSGNSQESVTEQDSKDSTYSLSSTLTLSKADYEKHKVYACEVTHQGLSSPVTKSFNRGEC
notes: also called TRIDENT-BS
In the case of B7, the “EC50 (read off the curve)” value is around 0.08 µg/mL in [12], around 0.007 µg/mL in assay [13] and around 0.04 µg/mL in [14].
